Measurements from patent US20200181262A1 (published 2020).
Positions count from the first letter of the chain named. Values joined by “and” are separate entries in the source; they are usually repeats but may differ in a detail not shown here. Equal values may be shown once.

Columns and labels:
[1] = biological target: T1, FcRn (analyte of the BIACORE studies of Tables 9-11, tables titled anti-human FcRn mAbs) (human, UniProt P55899 24-290; P61769 21-119); experiment: SPR, antibody captured on protein A, FcRn 50-0.02 nM, 1:1 model
T1 construct: also called analyte (FcRn)
Protocol: For kinetic analysis, a 2-fold dilution range was selected from 50-0.02 nM FcRn. The association phase of FcRn analyte was monitored for 450 seconds, and dissociation was measured for 1500 seconds, at 40 μl/min. Fc1 was a reference channel and was subtracted from other flow cells to correct for non-specific binding. Kinetic values are based on a 1:1 binding model (Table 11).

[2] = biological target: T2, monomeric His-tagged human FcRn (hFcRn) (JTA) (human, UniProt P55899 24-290; P61769 21-119, limits assumed); experiment: SPR (Biacore 3000), mAb amine-coupled, His-tagged hFcRn injected, 1:1 Langmuir, pH 6.0
T2 construct: In-house soluble His-tagged FcRn; also called monomeric human FcRn produced in-house; not shown: His tag

[3] = biological target: T2, monomeric His-tagged human FcRn (hFcRn) …; experiment: SPR (Biacore 3000), mAb amine-coupled, His-tagged hFcRn injected, 1:1 Langmuir, pH 7.4
Protocol: The coupling was performed by injecting 3 μg/ml of each protein into 10 mM sodium acetate, pH 4.5 (GE Healthcare), using the amine coupling kit (GE Healthcare). […] All SPR experiments were conducted at 25° C. with a flow rate of 40 μl/min. Binding data were zero-adjusted, and the reference cell value subtracted. The Langmuir 1:1 ligand binding model provided by the BIAevaluation software (version 4.1) was used to determine the binding kinetics. The closeness of the fit is described by the statistical value χ².

[4] = biological target: T1, FcRn (analyte of the BIACORE studies of …); experiment: SPR (BIACORE), antibody immobilized on CM5, FcRn injected, 1:1 Langmuir, pH 6.0
Protocol: Antibodies were diluted into 10 mM NaAc, pH 4.5, and immobilized onto BIACORE® CM5 chips to RU levels of approximately 500-1000. Analysis was performed by injection of FcRn at concentrations of 12-800 nM in 1×PBS-P at pH 7.4 or pH 6.0.

[5] = biological target: T1, FcRn (analyte of the BIACORE studies of …); experiment: SPR (BIACORE), antibody captured on protein A CM5 chip, FcRn analyte
Description: Antibodies were captured on a CM5 chip coated with protein A and analyte (FcRn) flowed over the surface.

[6] = biological target: T3, cynomolgus FcRn (cFcRn) obtained from SINO Biological Inc (cynomolgus monkey, UniProt Q8SPV9 24-297; Q8SPW0 21-119); experiment: SPR (Biacore 3000), H3Vk2 amine-coupled, cynomolgus FcRn (SINO) injected, 1:1 Langmuir, pH 7.4
T3 construct: also called pFcRn (SINO); pFeltn (SINO)
Protocol: (§1) All SPR experiments were conducted at 25° C. with a flow rate of 40 μl/min. Binding data were zero-adjusted, and the reference cell value subtracted. The Langmuir 1:1 ligand binding model provided by the BIAevaluation software (version 4.1) was used to determine the binding kinetics. The closeness of the fit is described by the statistical value χ2.

[7] = biological target: human FcRn as expressed in cells (human whole blood; hFcRn transgenic mice) (human, UniProt P55899 24-365; P61769 21-119); experiment: cell-based or functional assay
[8] = biological target: T2, monomeric His-tagged human FcRn (hFcRn) …; experiment: SPR (Biacore 3000), H3Vk2 amine-coupled, hFcRn (JTA) injected, 1:1 Langmuir, pH 7.4
Protocol: as §1

[9] = biological target: T2, monomeric His-tagged human FcRn (hFcRn) …; experiment: SPR (Biacore 3000), mAb amine-coupled, His-tagged hFcRn (JTA) injected, 1:1 Langmuir, pH 6.0
Protocol: In a further study, surface plasmon resonance (SPR) was conducted using a Biacore 3000 instrument (GE Healthcare) with CM5 sensor chips coupled with antibodies (˜550 resonance units (RU)) using amine-coupling chemistry as described by the manufacturer. […] All SPR experiments were conducted at 25° C. with a flow rate of 40 μl/min. Binding data were zero-adjusted, and the reference cell value subtracted. The Langmuir 1:1 ligand binding model provided by the BIAevaluation software (version 4.1) was used to determine the binding kinetics. The closeness of the fit is described by the statistical value χ2.

T2 sequence (P55899 24-290 limits assumed, chain 1 of 2): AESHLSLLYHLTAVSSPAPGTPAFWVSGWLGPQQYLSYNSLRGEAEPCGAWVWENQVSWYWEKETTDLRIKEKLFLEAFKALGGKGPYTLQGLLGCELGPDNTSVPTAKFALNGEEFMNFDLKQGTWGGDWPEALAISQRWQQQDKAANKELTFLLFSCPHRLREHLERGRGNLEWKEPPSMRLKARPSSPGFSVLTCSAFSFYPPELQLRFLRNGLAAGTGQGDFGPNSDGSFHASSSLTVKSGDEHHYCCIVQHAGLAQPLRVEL
T2 sequence (P61769 21-119 limits assumed, chain 2 of 2): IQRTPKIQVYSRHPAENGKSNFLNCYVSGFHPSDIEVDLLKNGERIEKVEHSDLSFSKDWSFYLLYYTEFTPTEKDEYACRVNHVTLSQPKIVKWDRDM
T1 sequence (P55899 24-290 limits assumed, chain 1 of 2): as the sequence (P55899 24-290 limits assumed, chain 1 of 2) above
T1 sequence (P61769 21-119 limits assumed, chain 2 of 2): as the sequence (P61769 21-119 limits assumed, chain 2 of 2) above
T3 sequence (Q8SPV9 24-297 limits assumed, chain 1 of 2): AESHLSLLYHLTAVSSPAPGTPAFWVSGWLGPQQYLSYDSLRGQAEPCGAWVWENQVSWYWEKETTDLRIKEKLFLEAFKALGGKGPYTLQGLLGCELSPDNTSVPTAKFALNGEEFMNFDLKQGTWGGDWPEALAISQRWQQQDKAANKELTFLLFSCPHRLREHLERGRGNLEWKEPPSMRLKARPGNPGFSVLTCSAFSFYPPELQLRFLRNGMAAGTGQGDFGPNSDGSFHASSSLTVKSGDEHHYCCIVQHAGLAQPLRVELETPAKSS
T3 sequence (Q8SPW0 21-119 limits assumed, chain 2 of 2): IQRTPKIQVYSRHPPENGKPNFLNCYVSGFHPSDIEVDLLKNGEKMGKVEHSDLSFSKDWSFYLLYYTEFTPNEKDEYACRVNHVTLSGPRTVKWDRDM
human FcRn as expressed in cells (human whole blood; hFcRn transgenic mice), sequence (P55899 24-365, chain 1 of 2): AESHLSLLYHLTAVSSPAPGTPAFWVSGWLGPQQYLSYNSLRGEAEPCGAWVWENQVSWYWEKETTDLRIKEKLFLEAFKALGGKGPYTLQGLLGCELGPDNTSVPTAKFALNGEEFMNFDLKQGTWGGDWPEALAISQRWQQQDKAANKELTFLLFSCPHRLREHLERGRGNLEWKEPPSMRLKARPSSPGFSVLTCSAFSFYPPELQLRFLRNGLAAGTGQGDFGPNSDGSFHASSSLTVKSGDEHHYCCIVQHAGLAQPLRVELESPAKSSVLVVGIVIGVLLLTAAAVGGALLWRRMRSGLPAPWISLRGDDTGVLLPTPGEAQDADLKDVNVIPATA
human FcRn as expressed in cells (human whole blood; hFcRn transgenic mice), sequence (P61769 21-119, chain 2 of 2): as the sequence (P61769 21-119 limits assumed, chain 2 of 2) above

B1: G9VH1_Vκ2 antibody (antibody, V domains shown)
VH: QVQLVQSGAELKKPGASVKLSCKASGYTFTSYGISWVKQATGQGLEWIGEIYPRSGNTYYNEKFKGRATLTADKSTSTAYMELRSLRSEDSAVYFCARSTTVSPPRVWGTGTTVTVSS
VL: DIQMTQSPSSLSASVGDRVTITCKASDHINNWLAWYQQKPGQAPRLLISGATSLETGVPSRFSGSGTGKDYTLTISSLQPEDFATYYCQQYWSTPYTFGGGTKVEIK
notes: also called G9Vκ2
Kd [1]: 0.39 nM and 0.4 nM
kon [1]: 318000 M⁻¹ s⁻¹
Kd [2]: 7.4 nM
kon [2]: 85000 M⁻¹ s⁻¹
Kd [3]: 4.9 nM
kon [3]: 61000 M⁻¹ s⁻¹

B2: VH1_G9/Vκ2_E8 IgG4 (antibody, V domains shown)
VH: B1 VH
VL: B1 VL with P80T, Q89H, W92Y
notes: bivalent IgG4, kappa; also called G9VH1_E8Vκ2; G9VH1E8Vκ2
Kd [4]: 0.6 nM
Kd [5]: 0.84 nM

B3: H3VH1_Vκ2 antibody (anti-FcRn mAb H3Vκ2) (antibody, V domains shown)
VH: B1 VH with S103R, R106G, V107I
VL: B1 VL
notes: also called H3Vk2; H3VK2
Kd [2]: 3.8 nM
Kd [3]: 5.1 nM
Kd [6]: 11.9 nM
plasma concentration of HuLys11 (human IgG1) in hFcRn transgenic mice after 20 mg/kg [7]: 3 fold
Kd [8]: 4.6 nM
Kd [9]: 3.8 nM
